Data published in US20180037644A1 (Pfizer, published 2018).
Changes are numbered by the printed parent chain. Like-named read-outs stand apart in the source and are kept apart here.

How the values were obtained:
human IL-33 (mm2) [1] = molecular target: T1, human IL-33 (mm2) (human, UniProt O95760 112-270); experiment: cell-based or functional assay
T1 chain: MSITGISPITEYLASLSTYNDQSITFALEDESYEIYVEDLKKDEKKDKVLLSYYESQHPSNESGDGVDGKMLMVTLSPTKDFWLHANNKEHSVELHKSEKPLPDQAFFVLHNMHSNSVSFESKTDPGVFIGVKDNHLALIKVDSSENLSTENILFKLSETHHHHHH

[2] = molecular target: T2, cynomolgus monkey IL-33 (cys mut) (cynomolgus monkey); experiment: SPR, IgG captured by anti-human Fc, IL-33 in solution
T2 construct: Variant in which the three cysteine residues are serine; N-terminal Met and C-terminal His6 in the entry; also called cyno IL-33; cyno IL-33 (cys mut)
T2 chain: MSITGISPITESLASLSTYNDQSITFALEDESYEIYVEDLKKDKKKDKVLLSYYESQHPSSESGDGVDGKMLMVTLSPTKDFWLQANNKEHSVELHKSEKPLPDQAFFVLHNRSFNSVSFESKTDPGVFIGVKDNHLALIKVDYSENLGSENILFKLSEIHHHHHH
Protocol: (§1) Binding to human and cynomolgus monkey IL-33 was measured by surface plasmon resonance using a BIAcore T200 instrument. An anti-human Fc antibody was immobilized on a CM5 chip, and anti-IL-33 antibodies were captured.

human IL-33 (mm2) [3] = molecular target: T1, human IL-33 (mm2); experiment: as above
Protocol: as §1

[4] = molecular target: T2, cynomolgus monkey IL-33 (cys mut); experiment: cell-based or functional assay
[5] = molecular target: T3, native human IL-33 from human lung fibroblast (HFL-1) lysate (human, UniProt O95760 1-270, limits assumed); experiment: cell-based or functional assay
T3 sequence (looked up): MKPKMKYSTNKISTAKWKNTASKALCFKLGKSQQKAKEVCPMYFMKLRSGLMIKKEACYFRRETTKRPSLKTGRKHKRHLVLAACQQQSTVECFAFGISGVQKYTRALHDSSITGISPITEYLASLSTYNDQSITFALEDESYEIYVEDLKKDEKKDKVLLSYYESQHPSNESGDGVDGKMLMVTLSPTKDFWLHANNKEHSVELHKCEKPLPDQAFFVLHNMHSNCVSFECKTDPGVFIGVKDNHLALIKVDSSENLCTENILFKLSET

human IL-33 WT (R&D) = molecular target: T4, human IL-33 WT (R&D) (human, UniProt O95760 112-270); experiment: cell-based or functional assay
T4 sequence: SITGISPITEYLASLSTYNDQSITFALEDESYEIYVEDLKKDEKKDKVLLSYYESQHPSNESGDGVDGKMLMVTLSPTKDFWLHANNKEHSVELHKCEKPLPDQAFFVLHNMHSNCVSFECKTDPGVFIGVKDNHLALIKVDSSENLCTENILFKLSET

human IL-33 (mm2) [6] = molecular target: T1, human IL-33 (mm2); experiment: cell-based or functional assay
[7] = molecular target: T2, cynomolgus monkey IL-33 (cys mut); experiment: cell-based or functional assay
human IL-33 (mm2) [8] = molecular target: T1, human IL-33 (mm2); experiment: cell-based or functional assay
human IL-33 (mm2) [9] = molecular target: T1, human IL-33 (mm2); experiment: cell-based or functional assay

B1: 30B11 chimera/hu J (antibody, human IgG1, kappa, V domains shown)
VH: QVKLLQSGAALVKPGASVKMSCATSGFSFTDYWVSWVKQSHGKGLEWIGEIYPNSGADNFNENFKGKATLTVDKSTSTAYMELSRLTSEDSAIYYCTRGPYYYSTQIIFAYWGQGTLVTVSS
VL: NIVMTQSPKSMSISVGDRVTMNCKASQNVGNNLAWYQQKPGQSPKLLIYYASNRYTGVPDRFTGGGYGTDFTLTINSVQAEDAAFYYCQRIYNSPPTFGGGTKVEIKR
notes: also called 30B11 hu Jseg
Human IL-33 (mm2) [1]
  IC50, HEK293 ST2 NFkB: 0.028 nM
[2]
  Kd: 0.148 nM
Human IL-33 (mm2) [3]
  Kd: 0.367 nM
[4]
  IC50, HEK293 ST2 NFkB: 0.11 nM
[5]
  % inhibition 0.1 nM Ab, HEK293 ST2 NFkB: 102%
  % inhibition 1 nM Ab, HEK293 ST2 NFkB: 109%
  % inhibition 10 nM Ab, HEK293 ST2 NFkB: 110%

B2: IL33-158-152 (antibody, human IgG1, kappa)
heavy: EVQLVESGGGLVQPGGSLRLSCAASGFTFSSYWMYWVRQAPGKGLEWVAAITPNAGEDYYPESVKGRFTISRDNAKNSLYLQMNSLRAEDTAVYYCARGHYYYTSYSLGYWGQGTLVTVSSASTKGPSVFPLAPSSKSTSGGTAALGCLVKDYFPEPVTVSWNSGALTSGVHTFPAVLQSSGLYSLSSVVTVPSSSLGTQTYICNVNHKPSNTKVDKKVEPKSCDKTHTCPPCPAPEAAGAPSVFLFPPKPKDTLMISRTPEVTCVVVDVSHEDPEVKFNWYVDGVEVHNAKTKPREEQYNSTYRVVSVLTVLHQDWLNGKEYKCKVSNKALPAPIEKTISKAKGQPREPQVYTLPPSREEMTKNQVSLTCLVKGFYPSDIAVEWESNGQPENNYKTTPPVLDSDGSFFLYSKLTVDKSRWQQGNVFSCSVMHEALHNHYTQKSLSLSPG
light: DIQMTQSPSSLSASVGDRVTITCKASQNINKHLDWYQQKPGKAPKLLIYFTNNLQTGVPSRFSGSGSGTDFTLTISSLQPEDFATYYCFQYNQGWTFGGGTKVEIKRTVAAPSVFIFPPSDEQLKSGTASVVCLLNNFYPREAKVQWKVDNALQSGNSQESVTEQDSKDSTYSLSSTLTLSKADYEKHKVYACEVTHQGLSSPVTKSFNRGEC
Human IL-33 WT (R&D)
  IC50, HEK293 ST2 NFkB: 0.62 nM
Human IL-33 (mm2) [6]
  IC50, HEK293 ST2 NFkB: 0.095 nM

B3: IL33-167-153 (antibody, human IgG1, kappa)
heavy: B2 heavy with A50S, E62D
light: B2 light with Q93N
Human IL-33 WT (R&D)
  IC50, HEK293 ST2 NFkB: 0.749 nM
Human IL-33 (mm2) [6]
  IC50, HEK293 ST2 NFkB: 0.129 nM

B4: IL33-11 (antibody, human IgG1, kappa, V domains shown)
VH: EVQLVESGGGLVQPGGSLRLSCAASGFTFSNYWMYWVRQAPGKGLEWVASITPNGGNTYYPDSVKGRFTISRDNAKNSLYLQMNSLRAEDTAVYYCARGHYYYTSYSLGYWGQGTLVTVSS
VL: DIQMTQSPSSLSASVGDRVTITCKASQNINKHLDWYQQKPGKAPKLLIYFTNNLQTGVPSRFSGSGSGTDFTLTISSLQPEDFATYYCFQYNNGWTFGGGTKVEIKR
[7]
  IC50, HEK293 ST2 NFkB: 0.204 nM
Human IL-33 (mm2) [8]
  IC50, HEK293 ST2 NFkB: 0.09 nM

B5: IL33-13 (antibody, human IgG1, kappa, V domains shown)
VH: B4 VH with N31S, Y102S, T104S, L108F, G109S
VL: B4 VL
[7]
  IC50, HEK293 ST2 NFkB: 7.65 nM
Human IL-33 (mm2) [8]
  IC50, HEK293 ST2 NFkB: 0.22 nM

B6: 9B3 CDR graft (antibody, human IgG1, kappa, V domains shown)
VH: B4 VH with T52N, P53N, N54D, P61L, Y102S, T104S, L108F, G109S
VL: B4 VL with Q27H, N93S
Human IL-33 (mm2) [9]
  IC50, HEK293 ST2 NFkB: 0.52 nM

B7: 30B11 CDR graft (antibody, human IgG1, kappa, V domains shown)
VH: EVQLVESGGGLVQPGGSLRLSCAASGFTFTDYWVSWVRQAPGKGLEWVAEIYPNSGADNFNENFKGRFTISRDNAKNSLYLQMNSLRAEDTAVYYCARGPYYYSTQIIFAYWGQGTLVTVSS
VL: DIQMTQSPSSLSASVGDRVTITCKASQNVGNNLAWYQQKPGKAPKLLIYYASNRYTGVPSRFSGSGSGTDFTLTISSLQPEDFATYYCQRIYNSPPTFGGGTKVEIKR
Human IL-33 (mm2) [9]
  IC50, HEK293 ST2 NFkB: 0.368 nM

B8: 30B11 CDR graft_R71V (antibody, human IgG1, kappa, V domains shown)
VH: B7 VH with R72V
VL: B7 VL
Human IL-33 (mm2) [9]
  IC50, HEK293 ST2 NFkB: 0.278 nM
